Molecular target: the molecule itself
Test: SEC + other: SDS-PAGE under non-reducing conditions; analytical gel filtration chromatography and SDS-PAGE without DTT or beta-mercaptoethanol; apparent molecular mass ca. 60,000; dimer

B1: Bacillus cereus Fnr, recombinant tag-less apo-form (natural protein, Bacillus cereus F4430/73, UniProt A4GFD9 1-230, looked up)
chain: MANSMTLSQDLKELLASVEYKMQIKKGSFIFQEGMEATELYIIHSGKVQISKLSADGQELTLRICSAYDIIGELTLFTDNAKYLLNSKCLEDVEVGVIKREALEKELLQKPALVFEFMKWISEHLRRMQTKFRDLVLHGKKGALYSTLIRMTNSYGILKENGILIDLPLTNQELANFCATSRESVNRMLNELKKQGTISIHKGKITIHDLQFLKCEIACEDCSASVCSID
notes: also called apoFnr; tag-less Fnr; source: E. coli BL21 CodonPlus(DE3)-RIL (pET101fnr), aerobically grown, purified (DEAE-cellulose, hydroxyapatite, Superdex 200)
stoichiometry N: 2

Source: PMC3520743, “Bacillus cereus Fnr binds a [4Fe-4S] cluster and forms a ternary complex with ResD and PlcR” (BMC Microbiology, 2012)
